Test results published in FireProtDB (doi:10.1016/s0022-2836(02)00737-4).
“And” between values parts separate entries of the source, which are not always exact repeats. Equal entries are not always repeated.

B1: Tryptophan synthase alpha chain, P0A877 (parent)
chain: MERYESLFAQLKERKEGAFVPFVTLGDPGIEQSLKIIDTLIEAGADALELGIPFSDPLADGPTIQNATLRAFAAGVTPAQCFEMLALIRQKHPTIPIGLLMYANLVFNKGIDEFYAQCEKVGVDSVLVADVPVEESAPFRQAALRHNVAPIFICPPNADDDLLRQIASYGRGYTYLLSRAGVTGAENRAALPLNHLVAKLKEYNAAPPLQGFGISAPDQVKAAIDAGAAGAISGSAIVKIIEQHINEPEKMLAALKVFVQPMKAATRS

Variants of: B1
Details: Escherichia coli (strain K12); pH 7.8; 25 °C; Urea; CD; potassium phosphate 10 mM; transition: 3; structure 1WQ5; whole UniProt chain shown

Variant | denaturant m value | denaturant midpoint (higher = more stable) | unfolding free energy
MERYESLFAQLKERKEGAFVPFVTLGDAGIEQSLKIIDTLIEAGADALELGIPFSDPLADGPTIQNATLRAFAAGVTPAQCFEMLALIRQKHPTIPIGLLMYANLVFNKGIDEFYAQCEKVGVDSVLVADVPVEESAPFRQAALRHNVAPIFICPPNADDDLLRQIASYGRGYTYLLSRAGVTGAENRAALPLNHLVAKLKEYNAAPPLQGFGISAPDQVKAAIDAGAAGAISGSAIVKIIEQHINEPEKMLAALKVFVQPMKAATRS [P28A] | 1.48 kcal/mol/M and 1.04 kcal/mol/M | 1.36 M and 3.66 M | 2.01 kcal/mol and 3.81 kcal/mol
MERYESLFAQLKERKEGAFVPFVTLGDGGIEQSLKIIDTLIEAGADALELGIPFSDPLADGPTIQNATLRAFAAGVTPAQCFEMLALIRQKHPTIPIGLLMYANLVFNKGIDEFYAQCEKVGVDSVLVADVPVEESAPFRQAALRHNVAPIFICPPNADDDLLRQIASYGRGYTYLLSRAGVTGAENRAALPLNHLVAKLKEYNAAPPLQGFGISAPDQVKAAIDAGAAGAISGSAIVKIIEQHINEPEKMLAALKVFVQPMKAATRS [P28G] | 2.15 kcal/mol/M and 1.18 kcal/mol/M | 2.08 M and 4.1 M | 4.47 kcal/mol and 4.84 kcal/mol
